Source: US20090060916A1 (published 2009)
Where a chain is given by its changes, count along the chain named. “And” between values parts separate entries of the source, which are not always exact repeats. Equal values may be shown once.

T1: human IL-4 (human, UniProt P05112 25-153, biotinylated in the receptor binding assay and on the Biacore chip)
T1 construct: also called interleukin-4; biotinylated IL-4
T1 sequence (looked up): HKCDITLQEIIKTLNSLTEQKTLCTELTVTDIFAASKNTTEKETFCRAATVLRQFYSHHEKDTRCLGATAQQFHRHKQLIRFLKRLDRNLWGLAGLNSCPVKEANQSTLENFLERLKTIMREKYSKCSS

B1: DOM10-213-TVAAPS-DOM9-155-78 (bispecific antibody)
chain: DIQMTQSPSSLSASVGDRVTITCRASQAIPWGLNWYQQKPGKAPKLLIYDVSSLQSGVPSRFSGSGSGTDFTLTISSLQPEDFATYYCQQDIHIPMTFGQGTKVEIKRTVAAPSDIQMTQSPSSLSASVGDRVTITCRASRHIGDWLHWYQQKPGKAPKLLIAWASTLDSGVPSRFSGSGSGTDFTLTISSLQPEDFATYYCLQEGWGPPTFGQGTKVEIKR
notes: in-line fusion, from pDOM5
B2: DOM10-215-TVAAPS-DOM9-155-78 (bispecific antibody)
chain: DIQMTQSPSSLSASVGDRVTITCRASQNIFADLNWYQQKPGKAPKLLIYMGSRLQSGVPSRFSGSGSGTDFTLTISSLQPEDFATYYCQQDYKFPLTFGQGTKVEIKRTVAAPSDIQMTQSPSSLSASVGDRVTITCRASRHIGDWLHWYQQKPGKAPKLLIAWASTLDSGVPSRFSGSGSGTDFTLTISSLQPEDFATYYCLQEGWGPPTFGQGTKVEIKR
notes: in-line fusion, from pDOM5
B3: DOM9-112-210-ASTKGPS-DOM10-212 (bispecific antibody)
chain: EVQLLESGGGLVQPGGSLRLSCAASGFTFRNFGMGWVRQAPGKGLEWVSWIISSGTETYYADSVKGRFTISRDNSKNTLYLQMNSLRAEDTAVYYCAKSLGRFDYWGQGTLVTVSSASTKGPSDIQMTQSPSSLSASVGDRVTITCRASSVILNELHWYQQKPGKAPKLLISAVSRLQSGVPSRFSGSGSGTDFTLTISSLQPEDFATYYCLQTFWGPFTFGQGTKVEIKR
notes: in-line fusion, from pDOM5
B4: DOM9-112-210-DOM10-270 (bispecific antibody)
chain: B3 chain with F219Y
notes: in-line fusion, from pDOM5
B5: DOM9-112-210-ASTKGPS-DOM10-275 (bispecific antibody)
chain: EVQLLESGGGLVQPGGSLRLSCAASGFTFRNFGMGWVRQAPGKGLEWVSWIISSGTETYYADSVKGRFTISRDNSKNTLYLQMNSLRAEDTAVYYCAKSLGRFDYWGQGTLVTVSSASTKGPSEVQLLESGGGLVQPGGSLRLSCAASGFTFDREEMDWVRQAPGKGLEWVSTISPSGRKTYYADSVKGRFTISRDNSKNTLYLQMNSLRAEDTAVYYCAKHGTGFDYWGQGTLVTVSS
notes: in-line fusion, from pDOM5
B6: DOM9-112-210-ASTKGPS-DOM10-276 (bispecific antibody)
chain: B5 chain with D153R, R154D, E155Y, T173S, S175G, R179S, K180E, H222A, G223Y, G225S
notes: in-line fusion, from pDOM5
B7: DOM10-236-ASTKGPS-DOM9-155-78 (bispecific antibody)
chain: EVQLLESGGGLVQPGGSLRLSCAASGFTFPKYDMMWVRQAPGKGLEWVSSIDHLGVNTYYADSVKGRFTISRDNSKNTLYLQMNSLRAEDTAVYYCAKESDWPSFDYWGQGTLVTVSSASTKGPSDIQMTQSPSSLSASVGDRVTITCRASRHIGDWLHWYQQKPGKAPKLLIAWASTLDSGVPSRFSGSGSGTDFTLTISSLQPEDFATYYCLQEGWGPPTFGQGTKVEIKR
notes: in-line fusion, from pDOM5
B8: DOM10-276-ASTKGPS-DOM9-155-78 (bispecific antibody)
chain: EVQLLESGGGLVQPGGSLRLSCAASGFTFRDYEMDWVRQAPGKGLEWVSSIGPSGSETYYADSVKGRFTISRDNSKNTLYLQMNSLRAEDTAVYYCAKAYTSFDYWGQGTLVTVSSASTKGPSDIQMTQSPSSLSASVGDRVTITCRASRHIGDWLHWYQQKPGKAPKLLIAWASTLDSGVPSRFSGSGSGTDFTLTISSLQPEDFATYYCLQEGWGPPTFGQGTKVEIKR
notes: in-line fusion, from pDOM5
B9: DOM10-416-ASTKGPS-DOM9-155-78 (bispecific antibody)
chain: B8 chain with R30K, D31G, Y32S, S50T, G52S, P53A, S54D, S56R, A99S
notes: in-line fusion, from pDOM5
B10: DOM10-277-ASTKGPS-DOM9-155-78 (bispecific antibody)
chain: EVQLLESGGGLVQPGGSLRLSCAASGFTFSSYEMDWVRQAPGKGLEWVSTISADGVTTYYADSVKGRFTISRDNSKNTLYLQMNSLRAEDTAVYYCAKAFDAFDYWGQGTLVTVSSASTKGPSDIQMTQSPSSLSASVGDRVTITCRASRHIGDWLHWYQQKPGKAPKLLIAWASTLDSGVPSRFSGSGSGTDFTLTISSLQPEDFATYYCLQEGWGPPTFGQGTKVEIKR
notes: in-line fusion, from pDOM5
B11: DOM9-112-210-ASTKGPS-DOM10-215 (bispecific antibody)
chain: EVQLLESGGGLVQPGGSLRLSCAASGFTFRNFGMGWVRQAPGKGLEWVSWIISSGTETYYADSVKGRFTISRDNSKNTLYLQMNSLRAEDTAVYYCAKSLGRFDYWGQGTLVTVSSASTKGPSDIQMTQSPSSLSASVGDRVTITCRASQNIFADLNWYQQKPGKAPKLLIYMGSRLQSGVPSRFSGSGSGTDFTLTISSLQPEDFATYYCQQDYKFPLTFGQGTKVEIKR
notes: in-line fusion, from pDOM5
B12: DOM9-112-210-ASTKGPS-DOM10-208 (bispecific antibody)
chain: EVQLLESGGGLVQPGGSLRLSCAASGFTFRNFGMGWVRQAPGKGLEWVSWIISSGTETYYADSVKGRFTISRDNSKNTLYLQMNSLRAEDTAVYYCAKSLGRFDYWGQGTLVTVSSASTKGPSDIQMTQSPSSLSASVGDRVTITCRASSPITDGLAWYQQKPGKAPKLLIDTGSRLQSGVPSRFSGSGSGTDFTLTISSLQPEDFATYYCRQGAMGSYTFGQGTKVEIKR
notes: in-line fusion, from pDOM5
B13: DOM10-224-TVAAPS-DOM9-155-78 (bispecific antibody)
chain: DIQMTQSPSSLSASVGDRVTITCRASPNIAVDLAWYQQKPGKAPKLLIRGVSRLQSGVPSRFSGSGSGTDFTLTISSLQPEDFATYYCRQGAMGSYTFGQGTKVEIKRTVAAPSDIQMTQSPSSLSASVGDRVTITCRASRHIGDWLHWYQQKPGKAPKLLIAWASTLDSGVPSRFSGSGSGTDFTLTISSLQPEDFATYYCLQEGWGPPTFGQGTKVEIKR
notes: in-line fusion, from pDOM5
B14: DOM9-112 (other)
VH: EVQLLESGGGLVQPGGSLRLSCAASGFTFRNYGMAWVRQAPGKGLEWVSWIDASGTETYYADSVKGRFTISRDNSKNTLYLQMNSLRAEDTAVYYCAKSLGRFDYWGQGTLVTVSS
notes: VH dAb
B15: DOM10-277 (other)
VH: EVQLLESGGGLVQPGGSLRLSCAASGFTFSSYEMDWVRQAPGKGLEWVSTISADGVTTYYADSVKGRFTISRDNSKNTLYLQMNSLRAEDTAVYYCAKAFDAFDYWGQGTLVTVSS
notes: VH dAb
B16: DOM10-212 (other)
VL: DIQMTQSPSSLSASVGDRVTITCRASSVILNELHWYQQKPGKAPKLLISAVSRLQSGVPSRFSGSGSGTDFTLTISSLQPEDFATYYCLQTFWGPFTFGQGTKVEIKR
notes: Vk dAb
B17: DOM10-270 (other)
VL: B16 VL with F96Y
notes: Vk dAb
B18: DOM10-215 (other)
VL: DIQMTQSPSSLSASVGDRVTITCRASQNIFADLNWYQQKPGKAPKLLIYMGSRLQSGVPSRFSGSGSGTDFTLTISSLQPEDFATYYCQQDYKFPLTFGQGTKVEIKR
notes: Vk dAb
B19: DOM10-212-TVAAPS-DOM9-155-78 (bispecific antibody)
chain: DIQMTQSPSSLSASVGDRVTITCRASSVILNELHWYQQKPGKAPKLLISAVSRLQSGVPSRFSGSGSGTDFTLTISSLQPEDFATYYCLQTFWGPFTFGQGTKVEIKRTVAAPSDIQMTQSPSSLSASVGDRVTITCRASRHIGDWLHWYQQKPGKAPKLLIAWASTLDSGVPSRFSGSGSGTDFTLTISSLQPEDFATYYCLQEGWGPPTFGQGTKVEIKR
notes: in-line fusion, from pDOM5
B20: DOM9-112-210-ASTKGPS-DOM10-236 (bispecific antibody)
chain: EVQLLESGGGLVQPGGSLRLSCAASGFTFRNFGMGWVRQAPGKGLEWVSWIISSGTETYYADSVKGRFTISRDNSKNTLYLQMNSLRAEDTAVYYCAKSLGRFDYWGQGTLVTVSSASTKGPSEVQLLESGGGLVQPGGSLRLSCAASGFTFPKYDMMWVRQAPGKGLEWVSSIDHLGVNTYYADSVKGRFTISRDNSKNTLYLQMNSLRAEDTAVYYCAKESDWPSFDYWGQGTLVTVSS
notes: in-line fusion, from pDOM5
B21: DOM9-44 (other)
VL: DIQMTQSPSSLSASVGDRVTITCRASQNINFWLRWYQQKPGKAPTLLIYDASALQSGVPSRFSGSGSGTDFTLTISSLQPEDFATYYCQQDFNPPYTFGQGTKVEIKR
notes: Vk dAb
B22: DOM9-112-168 (other)
VH: B14 VH with D52E, A53G, S54G
notes: VH dAb
B23: DOM9-155 (other)
VL: DIQMTQSPSSLSASVGDRVTITCRASLDIGDWLHWYQQKPGKAPKLLIGWGSGLQSGVPSRFSGSGSGTDFTLTISSLQPEDFATYYCLQEGLGPPTFGQGTKVEIKR
notes: Vk dAb

Molecular target: T1, human IL-4
Assay: DOM9 RBA (IL-4 RBA)
Text: (§1) The wells were washed three times with 0.1% (v/v) Tween 20 in PBS, followed by three washes with PBS, before blocking with 2% (w/v) BSA in PBS. […] The reaction was stopped by the addition of HCl and the absorbance read at 450 nm.

IC50	Binder
6.91 nM	B1
6.65 nM	B2
3.21 nM	B3
2.79 nM	B4
10.9 nM	B5
10.2 nM	B6
2.54 nM	B7
5.02 nM	B8
5.88 nM	B9
9.45 nM	B10
14.2 nM	B11
2.48 nM	B12
12.5 nM	B13
3.6 nM	B14

Molecular target: T2, human IL-13 (human, UniProt P35225 35-146, biotinylated on the Biacore chip)
T2 construct: also called hIL-13; recombinant human IL-13
Assay: Biacore SPR, IL-13 surface, before and after DOM10-53-386
Description: Analytes were passed over the antigen-coated flow-cell, with in-line referencing against a blank flow-cell, at a flow rate of 30 μl/min in HBS-EP running buffer (Biacore).

T2 sequence (P35225 35-146 limits assumed): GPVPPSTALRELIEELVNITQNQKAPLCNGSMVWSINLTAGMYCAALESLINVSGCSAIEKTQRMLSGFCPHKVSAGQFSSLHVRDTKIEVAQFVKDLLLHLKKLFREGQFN

binding result	Binder
binds	B15
binds	B16
binds	B17
binds	B18

Molecular target: T2, human IL-13
Assay: IL-13 Biacore

binding result	Binder
binds	B19
binds	B5
binds	B6
binds	B8
binds	B11
binds	B12
binds	B20
binds	B13

Molecular target: T1, human IL-4
Assay: IL-4 RBA: ELISA, IL-4R/Fc coated, biotinylated IL-4
Text: as §1

IC50	Binder
122 nM	B21
3 nM	B14
1.22 nM and 0.64 nM	B22
100 nM	B23

Molecular target: T2, human IL-13
Assay: Dom10 RBA (IL-13 sandwich ELISA per paragraph 471)
Description: A MAXISORP™ plate (high protein binding ELISA plate, Nunc, Denmark) was coated overnight with 2.5 μg/ml coating antibody (Module Set, Bender MedSystems, Vienna, Austria), then washed once with 0.05% (v/v) Tween 20 in PBS before blocking with 0.5% (w/v) BSA 0.05% (v/v) Tween 20 in PBS. […] The plate was then incubated with TMB substrate (KPL, Gaithersburg, USA), and the reaction was stopped by the addition of HCl and the absorbance read at 450 nm.

EC50	Binder
62 nM	B1
10.8 nM	B2
1000 nM	B3
398 nM	B4
372 nM	B7
444 nM	B9
648 nM	B10
